For one substance, Estimated V1a EC50 (calcium flux) and V1a Highest agonist effect (% of AVP) results are on record in patent publication US20230248800A1.

For this experiment, the target named is human V1a receptor (human) (UniProt P37288). The experiment can be described thus: cell-based or functional assay.
Sequence of human V1a receptor (human) (P37288 whole entry): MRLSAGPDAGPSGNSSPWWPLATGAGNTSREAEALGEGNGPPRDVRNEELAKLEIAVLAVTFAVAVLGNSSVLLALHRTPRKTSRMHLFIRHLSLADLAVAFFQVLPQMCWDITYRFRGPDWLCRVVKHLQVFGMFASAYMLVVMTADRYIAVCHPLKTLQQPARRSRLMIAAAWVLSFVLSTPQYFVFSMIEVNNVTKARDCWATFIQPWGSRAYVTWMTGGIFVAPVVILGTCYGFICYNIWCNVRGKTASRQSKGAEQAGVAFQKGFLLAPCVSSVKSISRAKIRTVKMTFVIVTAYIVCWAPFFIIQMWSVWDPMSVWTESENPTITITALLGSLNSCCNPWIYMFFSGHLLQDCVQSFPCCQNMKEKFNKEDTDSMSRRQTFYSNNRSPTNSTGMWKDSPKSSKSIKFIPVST

In the case of “Lysine vasopressin (LVP) (from UniProt P01183 20-28) (peptide)”, the Estimated V1a EC50 (calcium flux) is 1.65 nM and the V1a Highest agonist effect (% of AVP) is 92.1 % of AVP.
